Earlier results as cited in PMC12704549.

Target: pro-IL-18 (Homo sapiens) (UniProt Q14116)
Sequence (Q14116 37-193): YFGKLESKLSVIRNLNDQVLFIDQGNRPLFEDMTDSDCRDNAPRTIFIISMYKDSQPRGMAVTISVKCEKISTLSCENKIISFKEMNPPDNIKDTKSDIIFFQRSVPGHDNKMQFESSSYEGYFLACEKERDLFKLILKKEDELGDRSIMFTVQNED

Chain of caspase-4 (P49662 290-377): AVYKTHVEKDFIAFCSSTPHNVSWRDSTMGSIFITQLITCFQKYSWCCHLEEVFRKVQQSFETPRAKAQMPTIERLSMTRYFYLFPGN

Kd: 290 nM
Substance: caspase-4 (from UniProt P49662)
